The source of these data is a protein production outcome set (Wang et al. 2014).

The data set in a line: label from the status in PepcDB records.
In the case of “MALPRSEDGLVLMWSGGKDAMLALDVLHSQSPRRVGALLTTVTADEERVTMHGTPLSLVERQADALNVPLHVMRVPPQPPNEVYEARLEAALTPLLENGFSTVVAGDLFLDDVRAYREALIESVGATALFPLWGRDTTWLAQRFSTRGYRAVVTAVDTTQLDSSFVGRTYDDSFLEDLPDAVDPCGEKGAFHTFVSDGPPFAASVPVAETGRDTTGRIHTVRLRATGEEA”, the protein production result was “failed”.

“MGVNMEVCVVKPTSVDDSREITETLLAGRTVILNLEGMDLEIAQRIIDFISGATFAISGNLQKISNYIFLVTPTNVDILEHHHHHH”: the protein production entry is given as “failed”.

For the sequence “MPMYQETSEPSLQALESRQDDILKRLYELKAAVDGLSKMIHTPDADLDVTNILQADEPTTLATNTLDLNSVLGKDYGALKDIVINANPASPPLSLLVLHRLLCERYRVLSTVHTHSSVKNVPENLVKCFGEQARKQSRHEYQLGFTLIWKNVPKTQMKFSVQTMCPIEGEGNIARFLFSLFGQKHNAVTLTLIDSWVDIAMFQLREGSSKEKAAVFRSMNSALGRSPWLVGNELTVADVVLWSVLQQTGGSSGAAPTNVQRWLKSCENLAPFSTALQLLK”, the protein production entry was “failed”.

For “MSTQFKLPLASPLTHGREDFAVSPSNGEAVARLDAWPDWAEGRLVLVGPAGCGKSHLARAWAAAAGAVVVEAANPDAASVDLSALRGRAVLVEDADRRAQGAAVSDEALFHILNMAGVDGGTVLLTGRTAPLTWSAEVADLRSRLNALSVAEIAEPDDAVLEAVLRRAFAAAWWKPEPDLYPYLLARLPRSAAEAQAAAALLAEAAADGRRELTKALAREVLEGFEGDEGLEHHHHHH”, the protein production entry is listed as “failed”.

With “NDAIPTIFIHGYRGTDRSLHGMIRRFDQKYNWGTESLTVNVSPDGSISTTGTYSKNEKNPLINIVFEDNRATLPQQSMWTKKIMSYLQKNYDIKKFNAIGHSMGGGAWVSYLASYEKNKSYPQVNKIVFLAVPFYPEEYVNGDQQVDIKNANNVHAKFAQKMAKVLPDNTEIMIIGGDLEDGSNSDGEVKLNSVLYGQKLFAHQKVITHVIKGPKATHSSMHESTVVDKYVGQFLWGQK”, the protein production entry is given as “failed”.

Turning to “MAKSQIEPGVPITLQELYPSSLFYKEGVSLRVTAMLRGYSVETAIGVIEDGGRSLKINTQNIRDVSFRVGSIYQFIGELHIEQPNNEARTGRNVDGIDMNLYRKTIELLRQFLKEEDNSNMVE”, the protein production result is recorded as “failed”.

Consider “MSASICCRCNEKIWPRAVCSLGKTYHPHHFTCKECGLVVDPKLFFAVDDDVVCSECYLDKHAARCSACRTPILERGVAAAERKWHEKCFRCVSCSKSLVSASFFEVNGYLFCKAHFRELFSSRCAGCEKPIDRRAVVALSTKWHAKCFKCHHCRKRISAREFWIENGQPICAACQTVVPSPRNLSAQ”, for which the protein production result was “failed”.

On to “MANITFSSPVMAKDVTVYAVAGDRGTILAVAKSHSIPIPFDCQDGECGSCLVQVEHFNPKAKAAVALTEKEKEVLRQLGKITKEEIVDAEVNDIPPRYRLACQCFVRNEDILVKFEGDKTKPQRLAVTPAAAHYKGGMEINTPQEFFSYAAKVEEDAALHYDSLAKAMADAGNAPVAKLFAQLAEFSRLHLAEVKSRAGSIDLSKSVPPDYAWPDHATPERAAVWASDTTLTRLGALKAALQGERRGYEFYRAVEATTKSSEVAAAAKEFVNEEAEHVRILEAWITQEEWSLKHAAKAAENA”, for which the protein production result is “failed”.

Take “RAQTFEAVTPEYSRYAGQAFGSFQAMLSDLPDELGETIPNFHNMEFRLGQLHDALKTDPVGRAEEVRYYIDEIEKRAEEMCKAERLHREGKLPKRVCHCDTKVNNMLFDEDGHVLCVIDLDTVMPNFIFSDYGDFLRTGANTGEEDDKDLDHVNFDMEIFKAFTEGYLKGASSFLTDVEIENLPYAAALFPYMQCVRFLTDYINGDTYYKIKYPEHNLVRTRAQFRLLQSVEDCMPQMQAFIDQCLRY”: the protein production result is “not failed”.

With “MTAAQDGRIITFYSYKGGTGRTMALANTAWILAANGKRVLAVDWDLEAPGLDRFFRPFLDPHALAATSGIIDIINEYAWAATSGSQRSGAWHQEYAHVEQHAVSLTPERHGLRFAKGGSLDFLSAGRQDRSYSATVSSFEWDNFYERLGGGLFLDALRDDMKASYEYVLIDSRTGLSDNADICTIQMPDMLVDCFTLSDQSLDGAAAVARSVEDGYRKRKIRVLPVPMRIDEGEKEKVDAGRALARLKFDGLPKGLGGEDLSPEELSQYWGAVEIPYRPYYAYEETLATVGDESGIANSLLSAFERLTNVISDGEVASLPPVPEPVRLRCLDAFTRRRPLTTAADVVVAYAAENRMWADWIEAVLKHSGCNVTLYDVSAGPVERPDAATRALVLLSNAFQKSRYGEDVWRAFTGGDPDGAHPALVPLRVDEVRLPDSYLAHEPVDLHRLEEAQCVAGLLSALELPAQPTDGAPAAPRFPGSTPATWNAPQRNQTFTGRNVILTQVREQLRSGMSVVLPQPQALTGLGGVGKTQVALEYVHRFMADYDLVWWTSAESVDNVVASLAELGARIGAPGGEDMALVSRETVQMLARGVPTKRWILIFDNADNPEQLTRYFPAGGGGHILVTSRNQAWATQGQSLPVDVFLRQESIEHLSRRAPGLTAHEADRVATAVGDLPLAVEQAAAWLAETATPIEDYLRQLAEQTTDVLDLNQPADYPETVAATWNISIARLKDRSPASVRLLQLCAFLAPEPISSHLLYSKEMIDELRKVDPTLQESLLLGRVIREIARFALAKVDQVSNSIQVHRLVQAVIRSQLTQEEQRHARHVVHTVLAGARPDGDEPIDDPETWPRFGVIWPHLSASDVRNCTENEPRRLLIDRVRYLWKRGDFPAAQQLAEDLLGHWKPLLGEEDVQYLYLRCQLANVMRSQGRYVESRAINTELLEQQRRVLGAAHPHTYVTMSSLASDLAALGEYTLAVELAREAHDGFSQIFHESHRRTLSAANNLALALRMVGRYGDARSLDQDTYDRRMEVLGPDHPYTLASAGRLGRDLREVGRYEDSVSLLSRAYDAHKRILGKGFPGTLSCAKSLAVSLRRTGRLEDARRLTTATRAQYRTQYDAHTPDSLACDLNMAADLYAADEREAAREVAKEALTEYMKVPGEEHPYTQAALNNLGIFHWGCGDAVEAEAVFRQVLPRMSDVLGDRHPHTLFTEANFANVLADQGRLEEAWALEKRAMDTLRTVLGPQHPETLAVVSNCALTLGALGRTDEARRLREETLAELNRQGRQLGENNGIIQLTGHERRIYRDLEPLAV”, the protein production result is given as “failed”.

“MTLLFRYLFRNNLQVILPTLAVGTGLYLLSDLFDRLDDILEAGVPGNVAIWYFVAKTPLIISQILPAVFLLAALIQLCLMSRDRELMALQAGGVSFGAIARFFVVYGLLWAVLQLGFSQVLGVAGERESARIWQEQVRGRTPGTRDLTNVWFTDDNHVIHLEVVTPALRKGQGFAAYGLAADGIHIDTVIRAKAFTGTAGTWKLQDVEVFSTRDFGHAKLPEMSIAIGQDPQDFAVIDPGADPQRLPLWQLGDAVEKLRTAGSNVEGLRTAWHMKLAYAASLVVMGLLAVAMVTWRDNIYLATGLALVFTFLFYTMFTIGSTLGQKGIVSPPIAAWGADILVGVVASARLLLVLRPRSLR”: the protein production result is recorded as “failed”.

With “ADVSATVSDMGSLLTAVTLAGVLDYYSVGTKVIKAPKKMVEQQILMTLQTMASLVESSGVDGLVKALNPELLSKAASSMHLLDQQKDLDAALEILTHL”, the protein production entry was “not failed”.

Regarding “MPNTNPVAAWKALKEGNERFVAGRPQHPSQSVDHRAGLAAGQKPTAVIFGCADSRVAAEIIFDQGLGDMFVVRTAGHVIDSAVLGSIEYAVTVLNVPLIVVLGHDSCGAVNAALAAINDGTLPGGYVRDVVERVAPSVLLGRRDGLSRVDEFEQRHVHETVAILMARSSAISERIAGGSLAIVGVTYQLDDGRAVLRDHIGNIGEEV”, the protein production entry is listed as “not failed”.

On to “MDSRLAMFAPCPRGLEQILADELLALGAGDIAPADGGVAFAGDARLMMAVNLHSRTASRVLLRLAHGGYHAEQDIYRLAMSVDWPRWFEVSRTIKLKADGIAARVKSLDYIGLTVKDAICDRFRQAHLGRPSVDTRHPDVRVNVFLTADEATIYLDTSGEPLFKRGWREETGEAPLRENLAAGILLLAGYDGSQPLLDPMCGSGTFLVEAADIALNRAPGRARRFGFEALSSFDSAAWEKLQQDARKAEQPASSLAIRGSDRSQAMVNIARANLERAGLAELVEVSAADVTASRPHAEHGLIVSNPPYGVRLEEQDQLAAWYPELGDWLKAHFAGWTACLFSGDLRLGKLIRLAPKRRTPLFNGSLQCRLFVINMVEGSARKQKDGDEAEIETGDEQ”, for which the protein production result is reported as “failed”.

Take “MAGGTKRLPRAVREQQMLDAAVDVFSDRGFHETSMDAIAAKAEISKPMLYLYYGSKDELFAACIQREGLRFVEALAPAGDPGLSPREQLRRALEGFLGFVGKHRKSWMVLYRQAMGQQAFVGSVQSSRDRLIELTAHLLESSTKDPEPGQDFELIAIALVGAGEAVADRVAGGEIEVDAAADLLESLAWRGLAGKKKPE”: the protein production result was “not failed”.

Regarding “MRTLLFLMLGSVSAIANAASPAPASASASAASATATATPEQIKLQLREYFFDAAREGRQDMLAEFIRSHYDLNTRDEKGYTALILAAYHGQRPAVEQLLSAGADPCAQDKRGNTALMGAIFKGELGIAKRLMQADCAPDQRNNAGQTAAMYAALFQRTDVLKDLAAKGADLSLKDGQGNDVTKLQRGEFATTPAR”, the protein production entry is “failed”.

For the sequence “MPEWAAFVGLTGFLLTALLGLARLSQGAVRSDGGVSSTVDGVSMADRDPTIPRFETQRAAAQRQQMRDTLAPSDVSTGALLANVAFTQGLFGVLLVAGAFYFEIPASAFGVTSDALSTGLPAVAIGIGAGIGFWVGNEGAAALADGFGVTFDESLRELLAPDSPGGWVILLGGVLPVIAIVEELLFRAAAIGVPVAGLNAPAWAMAIVASVAFALGHGAQGRVGIVVTGTLGLALAGLFIATNSLLAVVVAHYLVNALELLVHEGLGVDRLWA”, the protein production entry is “failed”.

With “MVNRCFFFNRRICFMELFLLRHGKPDIRRSMAIRSVDMYSWIGEYDAAGILDSPDASTVAASEGKFIVSSPMPRALESVAALGLEPDIIIDELHEAPLPVFNIPLLKLTPLVWAALFRIFWMAGGSGGVETFSSVKIRAKLVSCELDKMAETHGSVLSVGHGFMNALVARELQKAGWKRQKVGPSGYWSGIKLVR”, the protein production entry was “failed”.

Regarding “MAFSPLCGVNCTSRPSASTINTFLTKAQHDVTLTDTDTRIFIKNIKTGVTMEQFRNSLQEFGAMQVYFYEPGSNNDGWAWVGFENKEAALKVIEESEKMQEEMNEENLNEMQNEDNEEQGSNSFYAEDEDKKDEEEEEEEEEY”, the protein production entry was “failed”.

As to “SNAMNVPFWTEEHVRATLPERDAESHKGTYGTALLLAGSDDMPGAALLAGLGAMRSGLGKLVIGTSENVIPLIVPVLPEATYWRDGWKKAADAQLEETYRAIAIGPGLPQTESVQQAVDHVLTADCPVILDAGALAKRTYPKREGPVILTPHPGEFFRMTGVPVNELQKKRAEYAKEWAAQLQTVIVLKGNQTVIAFPDGDCWLNPTGNGALAKGGTGDTLTGMILGMLCCHEDPKHAVLNAVYLHGACAELWTDEHSAHTLLAHELSDILPRVWKRFE”, the protein production result is “not failed”.

Consider “MGNLSKPVGIGAGGLDLLMPMHLRLDPLGEIAGCGPTLRKLFAESPVRRPFFDLFKVRRPTGIETPAALAARTGVRLHLTTLDGGVSLRGVATPKHEGRGLLLNLSFGISVIEAVRRHGLTDGDFAPTDLAVELLYLVEAKTAVAEELRRLNGRLERARRLAEEEALTDELTGLRNRRAIDQALEAVIATRRPFGLMHLDLDFFKEVNDSFGHAAGDEVLRAVAQVLSRETRTGDTVARIGGDEFMMLFPGLSDPAPMKRLAARVIADVARPIPFGGGVCRVSASIGMTLSVRYDRPDLARMLADADEALYAAKRAGRGTAVLSEGMRPERRRDP”, for which the protein production entry is “failed”.
